Data taken from article doi:10.1101/2025.08.07.668011, “High-Speed AFM Reveals IDR-Mediated Structural Plasticity of EML4-ALK Modulated by ALK Inhibitors” (bioRxiv, 2025).
Several values for one entry are separate records, joined by “and”; a condition that tells them apart may be missing. Identical values can stand only once.

Biological target: the molecule itself
Assay: high-speed atomic force microscopy (HS-AFM); purified protein (approximately 3 nM) deposited on mica for 10 min, rinsed, imaged in 1/10 diluted PBS in tapping mode; oligomeric state from total pixel density, number of globules and behaviour in time-lapse images; molecules counted as monomer, dimer or trimer in broad fields; formation and dissociation seen in real time (reversible)

B1: EML4-ALK variant-1 (v1, E13:A20) (natural protein, human, UniProt Q9HC35 1-496, looked up)
chain: MDGFAGSLDDSISAASTSDVQDRLSALESRVQQQEDEITVLKAALADVLRRLAISEDHVASVKKSVSSKGQPSPRAVIPMSCITNGSGANRKPSHTSAVSIAGKETLSSAAKSGTEKKKEKPQGQREKKEESHSNDQSPQIRASPSPQPSSQPLQIHRQTPESKNATPTKSIKRPSPAEKSHNSWENSDDSRNKLSKIPSTPKLIPKVTKTADKHKDVIINQEGEYIKMFMRGRPITMFIPSDVDNYDDIRTELPPEKLKLEWAYGYRGKDCRANVYLLPTGKIVYFIASVVVLFNYEERTQRHYLGHTDCVKCLAIHPDKIRIATGQIAGVDKDGRPLQPHVRVWDSVTLSTLQIIGLGTFERGVGCLDFSKADSGVHLCIIDDSNEHMLTVWDWQKKAKGAEIKTTNEVVLAVEFHPTDANTIITCGKSHIFFWTWSGNSLTRKQGIFGKYEKPKFVQCLAFLGNGDVLTGDSGGVMLIWSKTTVEPTPGKGPKVYRRKHQELQAMQMELQSPEYKLSKLRTSTIMTDYNPNYCFAGKTSSISDLKEVPRKNITLIRGLGHGAFGEVYEGQVSGMPNDPSPLQVAVKTLPEVCSEQDELDFLMEALIISKFNHQNIVRCIGVSLQSLPRFILLELMAGGDLKSFLRETRPRPSQPSSLAMLDLLHVARDIACGCQYLEENHFIHRDIAARNCLLTCPGPGRVAKIGDFGMARDIYRASYYRKGGCAMLPVKWMPPEAFMEGIFTSKTDTWSFGVLLWEIFSLGYMPYPSKSNQEVLEFVTSGGRMDPPKNCPGPVYRIMTQCWQHQPEDRPNFAIILERIEYCTQDPDVINTALPIEYGPLVEEEEKVPVRPKDPEGVPPLLVSQQAKREEERSPAAPPPLPTTSSGKAAKKPTAAEISVRVPRGPAVEGGHVNMAFSQSNPPSELHKVHGSRNKPTSLWNPTYGSWFTEKPTKKNNPIAKKEPHDRGNLGLEGSCTVPPNVATGRLPGASLLLEPSSLTANMKEVPLFRLRHFPCGNVNYGYQQQGLPLEAATAPGAGHYEDTILKSKNSMNQPGP
notes: EML4, N-terminal part up to exon 13 (E13:A20): CC/TD domain, basic region, part of the TAPE domain (HELP, WD repeats); ALK, from exon 20 (A20) to the C-terminus, residues 1058-1620, holds the tyrosine kinase domain; ENLYFQ probably stays; also called EML4-ALK v1; source: Expi293F, transfected, purified (anti-FLAG M2 gel, TEV protease and His-tag beads, Superdex 200 SEC); not shown: His tag …
- ratio of dimers: 15%
- ratio of trimers: 9%
- stoichiometry N: 2 and 3
